T1: Isl1 C-terminal fragment (LIM domains removed) (UniProt P61372 134-349)
T1 sequence: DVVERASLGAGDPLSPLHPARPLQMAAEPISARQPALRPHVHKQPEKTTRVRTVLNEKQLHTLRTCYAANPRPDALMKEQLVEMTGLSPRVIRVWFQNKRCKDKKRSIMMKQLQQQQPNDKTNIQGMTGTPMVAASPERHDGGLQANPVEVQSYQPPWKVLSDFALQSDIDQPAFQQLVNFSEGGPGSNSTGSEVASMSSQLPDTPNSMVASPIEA

B1: Gata3-P1 number 1 wild type (dsDNA)
DNA 1: GTCCTCTTTCCCAATTACCCACTGTCAGTC
DNA 2: GACTGACAGTGGGTAATTGGGAAAGAGGAC
B2: Gata3-P1 number 3 wild type (dsDNA)
DNA 1: CCTGGAGGGGCCTATTAGATATTTTGTTTT
DNA 2: AAAACAAAATATCTAATAGGCCCCTCCAGG
B3: Gata3-P1 number 1 mutant (dsDNA)
DNA 1: GTCCTCTTTCCCACGGCCCCACTGTCAGTC
DNA 2: GACTGACAGTGGGGCCGTGGGAAAGAGGAC
B4: Gata3-P1 number 3 mutant (dsDNA)
DNA 1: CCTGGAGGGGCCTCGGCGATATTTTGTTTT
DNA 2: AAAACAAAATATCGCCGAGGCCCCTCCAGG

Key:
[1] = target: T1, Isl1 C-terminal fragment (LIM domains …); experiment: EMSA; self-competed by 100x unlabeled; blocked by Isl1 antibody 40.2D6; 40 mM KCl, 15 mM HEPES pH 7.9, 1 mM EDTA, 0.5 mM DTT, 5% glycerol, 50 ng/ul poly(dI-dC), 2 nM probe, 20 ul, room temperature 20 min; 6% native PAGE in 0.5x TBE; details: protein: ivt; label: 5'-biotin (probe); blunt
[2] = target: T1, Isl1 C-terminal fragment (LIM domains …); experiment: competition; 100x unlabeled mutant vs site 1 probe; 40 mM KCl, 15 mM HEPES pH 7.9, 1 mM EDTA, 0.5 mM DTT, 5% glycerol, 50 ng/ul poly(dI-dC), 2 nM probe, 20 ul, room temperature 20 min; 6% native PAGE in 0.5x TBE; details: protein: ivt; blunt
[3] = target: T1, Isl1 C-terminal fragment (LIM domains …); experiment: competition; 100x unlabeled mutant vs site 3 probe; 40 mM KCl, 15 mM HEPES pH 7.9, 1 mM EDTA, 0.5 mM DTT, 5% glycerol, 50 ng/ul poly(dI-dC), 2 nM probe, 20 ul, room temperature 20 min; 6% native PAGE in 0.5x TBE; details: protein: ivt; blunt

Binder	binding result [1]	further results
B1	binds	
B2	binds	
B3		binding result [2]: no binding
B4		binding result [3]: no binding

From publication PMC4021819, “LIM homeodomain transcription factor Isl1 directs normal pyloric development by targeting Gata3”
